Several values for one entry are separate records, joined by “and”; a condition that tells them apart may be missing. Equal values may be shown once.
Legend:
[1] = target: T1, SARS-CoV-2 spike protein S on live virus, Wuhan (strain SARS-CoV-2/Canada/VIDO-01/2020) (SARS-CoV-2 (Wuhan), UniProt P0DTC2 14-1273); test: cell-based or functional assay
[2] = target: T1, SARS-CoV-2 spike protein S on live …; test: cell-based or functional assay; remark: listed apart in the source
[3] = target: T2, Human SARS-CoV-2_Wuhan S (SmT1) (SARS-CoV-2 (Wuhan), UniProt P0DTC2 14-1208); test: flow cytometry SVNA, VHH-Fc vs biotin-S binding to Vero E6 ACE2
[4] = target: T3, SARS-CoV-2 S1-RBD (Wuhan) (SARS-CoV-2 (Wuhan), UniProt P0DTC2 319-541); test: sandwich ELISA: biotin NRCoV2-02 VHH capture, antigen titrated, VHH-Fc detector
T3 construct: domain: S1-RBD

[5] = target: T2, Human SARS-CoV-2_Wuhan S (SmT1); test: as above
[6] = target: T4, SARS-CoV-2 S1 (aa16-685) (Wuhan) (SARS-CoV-2 (Wuhan), UniProt P0DTC2 16-685); test: as above
[7] = target: T3, SARS-CoV-2 S1-RBD (Wuhan); test: as above; remark: listed apart in the source
[8] = target: T2, Human SARS-CoV-2_Wuhan S (SmT1); test: as above; remark: listed apart in the source
[9] = target: T4, SARS-CoV-2 S1 (aa16-685) (Wuhan); test: as above; remark: listed apart in the source
[10] = target: S1-Fc (SARS-CoV-2 S1 aa16-685, Wuhan, human IgG1 Fc) (SARS-CoV-2 (Wuhan); human, UniProt P0DTC2 16-685)
[11] = target: T2, Human SARS-CoV-2_Wuhan S (SmT1); test: flow cytometry SVNA, VHH vs biotin-S binding to Vero E6 ACE2
[12] = target: SARS-CoV-2 S1-RBD fused to human Fc (S1-RBD-Fc) (SARS-CoV-2 Wuhan; human); test: SPR, antigen on chip
[13] = target: T5, SARS-CoV-2 spike trimer S (Wuhan, SmT1) (SARS-CoV-2 Wuhan); test: SPR, antigen on chip
T5 construct: extracellular domain

[14] = target: T6, SARS-CoV-2 S1 (aa16-685) (Wuhan) (SARS-CoV-2 Wuhan, UniProt P0DTC2 16-685); test: SPR, antigen on chip
T6 construct: NRC; FLAG, 6xHis tags

[15] = target: T7, SARS-CoV-2 S2 (aa686-1208) (Wuhan) (SARS-CoV-2 Wuhan, UniProt P0DTC2 686-1208); test: SPR, antigen on chip
T7 construct: NRC; FLAG, 6xHis tags

[16] = target: Human SARS-CoV-2_Wuhan S (SmT1) (SARS-CoV-2 (Wuhan), UniProt P0DTC2 14-1208); test: tandem SPR, immobilized S, orientation 1: VHH alone
[17] = target: T7, SARS-CoV-2 S2 (aa686-1208) (Wuhan); test: SPR single-cycle kinetics, VHH over immobilized S2 [cont.]
[18] = target: SARS-CoV-2 RBD (aa319-541) (Wuhan), monomeric (SARS-CoV-2 Wuhan, UniProt P0DTC2 319-541); test: SPR, monomeric RBD over captured VHH-Fc

B1: NRCoV2-SR01 VHH-Fc (Fc fusion)
chain: EVQLVQSGGGSVQAGGSLRLSCVASGFTFDNYAIGWFRQAPGKEREGVSCISGNGGVTIYADSVKGRFTISRDNAKNLVYLQMNSLKPEDTAVYYCAATGIRSTWSVYGCSRLAGPYDYWGQGTQVTVSS
notes: bivalent VHH-Fc
MN100 [1]: 6.25 nM
LVNA IC50 [2]: 9.42 nM
IC50 [3]: 6.6 nM
IC99 [3]: 56.9 nM
Imax % [3]: 59%

B2: NRCoV2-1d VHH-Fc (Fc fusion)
chain: EVQLVESGGGSVQPGGSLRLSCAASGSTLDYYAIGWFRQAPGKEREWVSSVSSSDGNTLYADSVKGRFTISRDNAKNTVYLQMNSLKAEDTAVYVCAADYSMRPFAVGRWHRDYEYWGQGTQVTVSS
notes: bivalent VHH-Fc
Limit of detection [4]: 0.15 ng/mL
Limit of detection [5]: 1.4 ng/mL
Limit of detection [6]: 1.37 ng/mL
MN100 [1]: 0.25 nM
LVNA IC50 [2]: 1.94 nM
SC50 [7]: 1.7 ng/mL
SC50 [8]: 25 ng/mL
SC50 [9]: 16 ng/mL
IC50 [3]: 5.4 nM
IC99 [3]: 42 nM
Imax % [3]: 89%

B3: NRCoV2-1d VHH (VHH)
VHH: B2 chain
EC50 [10]: 1.1 nM and 1.3 nM
IC50 [11]: 8.6 nM
IC99 [11]: 40.8 nM
Imax % [11]: 72%

B4: NRCoV2-MRed04 VHH (VHH)
VHH: EVQLVESGGGLVQPGRSLRLSCAASGNSFSISTMGWFRQAPGKERELVASIWSDTTTSYADSVKGRFTISTDNTRTKVYLQMSSLNPEDTAVYYCAADRGFVVRGQYDYWGQGTQVTVSS
Kd [12]: 2.06 nM
koff [12]: 0.00176 s⁻¹
kon [12]: 855000 M⁻¹ s⁻¹
Kd [13]: 1.09 nM
koff [13]: 0.0015 s⁻¹
kon [13]: 1.39e+06 M⁻¹ s⁻¹
Kd [14]: 1.68 nM
koff [14]: 0.00183 s⁻¹
kon [14]: 1.09e+06 M⁻¹ s⁻¹
binding result [15]: no binding

B5: NRCoV2-SR02 VHH-Fc (Fc fusion)
chain: EVQLVDSGGGLVQAGGSLRLSCTASEFTLNYYSIGWFRQSPGKEREGVSCIRYSGGGIDYADSVKGRFTISRDNAKNTVYLTMNSLKPEDTAVYYCAADRLYSRACPTAGGRNYWGQGTQVTVSS
notes: bivalent VHH-Fc
MN100 [1]: 6.25 nM
LVNA IC50 [2]: 14.1 nM
IC50 [3]: 5.8 nM
IC99 [3]: 49.8 nM
Imax % [3]: 53%

B6: NRCoV2-04 VHH-Fc (Fc fusion)
chain: AVQLVDSGGGLVQPGGSLRLSCAASGSPFSNVVMAWYRQAPGKQRERVAFISGGGIADYIMSVKGRFTISRDNAKNTVYLQMNSLKPEDTAVYYCWSSYESTWGQGTQVTVSS
notes: bivalent VHH-Fc
Limit of detection [4]: 0.46 ng/mL
Limit of detection [5]: 4.1 ng/mL
Limit of detection [6]: 4.12 ng/mL
MN100 [1]: 1.25 nM
LVNA IC50 [2]: 1.65 nM
SC50 [7]: 3.3 ng/mL
SC50 [8]: 39 ng/mL
SC50 [9]: 25 ng/mL
IC50 [3]: 11.7 nM
IC99 [3]: 420 nM
Imax % [3]: 51%

B7: NRCoV2-07 VHH-Fc (Fc fusion)
chain: QVQLVQSGGGLVQPGGSLRLSCAASGVTLDYYAIGWFRQAPGKEREAVSCISSNGRRNHYVASVRGRFTISRDNAKSTVYLQMNSLKPEDTAVYYCAAVQDVHGDNYYCTSPNEYNVWGQGTQVTVSS
notes: bivalent VHH-Fc
Limit of detection [4]: 0.08 ng/mL
Limit of detection [5]: 1.4 ng/mL
Limit of detection [6]: 0.46 ng/mL
MN100 [1]: 1.25 nM
LVNA IC50 [2]: 6.15 nM
SC50 [7]: 0.7 ng/mL
SC50 [8]: 18 ng/mL
SC50 [9]: 5 ng/mL
IC50 [3]: 6.8 nM
IC99 [3]: 98.9 nM
Imax % [3]: 89%

B8: NRCoV2-07 VHH (VHH)
VHH: B7 chain
EC50 [10]: 1.1 nM and 1 nM
IC50 [11]: 7.5 nM
IC99 [11]: 65.3 nM
Imax % [11]: 86%

B9: NRCoV2-02 VHH (VHH)
VHH: EVQLVESGGGLVQAGGSLRLSCAASGFTFSNYAMNWVRQAPGKGLEWVSGISGRGDDTRYADSVKGRFTISRDNAKNTLFLQMRSLRPEDTGVYRCTKGPDLYYFGSGYSDRGQGTQVTVSS
EC50 [10]: 0.2 nM
IC50 [11]: 5.1 nM
IC99 [11]: 15.5 nM
Imax % [11]: 100%
MN100 [1]: 1.25 nM

B10: NRCoV2-02 VHH (VHH)
VHH: B9 VHH
End 1st inj (RU) [16]: 33 RU
binding result [17]: no binding (tested: 10 nM)

B11: NRCoV2-02 VHH-Fc (Fc fusion)
chain: B9 VHH
notes: bivalent VHH-Fc
MN100 [1]: ≤ 0.01 nM
LVNA IC50 [2]: 0.12 nM
IC50 [3]: 5 nM
IC99 [3]: 30 nM
Imax % [3]: 94%

B12: NRCoV2-11 VHH-Fc (Fc fusion)
chain: EVQLVSSGGGLVQPGGSLRLSCAASGSSLDSYSVSWFRQAPGKEREWISFISRYYSSTYYTDSVKGRFTTSRDGDQKTVHLQMNSLKPEDTAVYYCAARSRDFSSPFSATDTYTSWGQGTQVTVSS
notes: bivalent VHH-Fc
Limit of detection [4]: 0.08 ng/mL
Limit of detection [5]: 1.4 ng/mL
Limit of detection [6]: 0.46 ng/mL
LVNA IC50 [2]: 9.9 nM
SC50 [7]: 0.8 ng/mL
SC50 [8]: 20 ng/mL
SC50 [9]: 6 ng/mL
IC50 [3]: 9.7 nM
IC99 [3]: 99.8 nM
Imax % [3]: 63%

B13: NRCoV2-11 VHH (VHH)
VHH: B12 chain
EC50 [10]: 0.2 nM

B14: NRCoV2-MRed05 VHH-Fc (Fc fusion)
chain: EVQLVESGGGLVQPGGSLRLSCAASGFTLDYYAIGWFRQAPGKEREGVSCISSSDGSTLYADSVKGRFTISRDNAKNTVYLQMNSLKPEDTAVYYCATGPQAYYSGSYYFQCPQAGMDYWGKGTQVTVSS
notes: bivalent
Kd [18]: 0.763 nM
koff [18]: 0.000496 s⁻¹
kon [18]: 650000 M⁻¹ s⁻¹

B15: NRCoV2-SR03 VHH (VHH)
VHH: AVQLVDSGGGLVQAGGSLRLSCAASGSIFSNNHMGWYRQAPGKQRELVAAISSGGKTNYADFAKGRFTISRDNAKNMVYLQMNSLKPEDTAVYYCNRGGWEYRSSYYIMGPHWGQGTQVTVSS
End 1st inj (RU) [16]: 18.5 RU
binding result [17]: no binding (tested: 20 nM)

— patent US20240270826A1 (NATIONAL RESEARCH COUNCIL OF CANADA, published 2024)
